Reference: publication doi:10.1101/2023.07.12.548734

Biological target: CrtSPARTA (heterodimeric TIR-APAZ/short pAgo complex from Crenotalea thermophila) (Crenotalea thermophila)
Test: cryo-EM structure

CrtSPARTA (heterodimeric TIR-APAZ/short pAgo complex from Crenotalea thermophila)
stoichiometry N (heterodimers in the assembly (octamer)): 4
stoichiometry N (heterodimers in the assembly (tetramer)): 2
